Columns and labels:
Settings in all cases: remark: other sources report otherwise
[1] = biological target: T1, full-length human calcium-sensing receptor (CaSR) (human), P41180; assay: cryo-EM structure; single-particle cryo-EM of Ca^2+-free CaSR in DDM/CHS, 20 mM HEPES pH 7.5, 150 mM NaCl, 5 mM EGTA, with 10 mM L-Trp (CaSR^Trp); 4.4 Å
T1 chain: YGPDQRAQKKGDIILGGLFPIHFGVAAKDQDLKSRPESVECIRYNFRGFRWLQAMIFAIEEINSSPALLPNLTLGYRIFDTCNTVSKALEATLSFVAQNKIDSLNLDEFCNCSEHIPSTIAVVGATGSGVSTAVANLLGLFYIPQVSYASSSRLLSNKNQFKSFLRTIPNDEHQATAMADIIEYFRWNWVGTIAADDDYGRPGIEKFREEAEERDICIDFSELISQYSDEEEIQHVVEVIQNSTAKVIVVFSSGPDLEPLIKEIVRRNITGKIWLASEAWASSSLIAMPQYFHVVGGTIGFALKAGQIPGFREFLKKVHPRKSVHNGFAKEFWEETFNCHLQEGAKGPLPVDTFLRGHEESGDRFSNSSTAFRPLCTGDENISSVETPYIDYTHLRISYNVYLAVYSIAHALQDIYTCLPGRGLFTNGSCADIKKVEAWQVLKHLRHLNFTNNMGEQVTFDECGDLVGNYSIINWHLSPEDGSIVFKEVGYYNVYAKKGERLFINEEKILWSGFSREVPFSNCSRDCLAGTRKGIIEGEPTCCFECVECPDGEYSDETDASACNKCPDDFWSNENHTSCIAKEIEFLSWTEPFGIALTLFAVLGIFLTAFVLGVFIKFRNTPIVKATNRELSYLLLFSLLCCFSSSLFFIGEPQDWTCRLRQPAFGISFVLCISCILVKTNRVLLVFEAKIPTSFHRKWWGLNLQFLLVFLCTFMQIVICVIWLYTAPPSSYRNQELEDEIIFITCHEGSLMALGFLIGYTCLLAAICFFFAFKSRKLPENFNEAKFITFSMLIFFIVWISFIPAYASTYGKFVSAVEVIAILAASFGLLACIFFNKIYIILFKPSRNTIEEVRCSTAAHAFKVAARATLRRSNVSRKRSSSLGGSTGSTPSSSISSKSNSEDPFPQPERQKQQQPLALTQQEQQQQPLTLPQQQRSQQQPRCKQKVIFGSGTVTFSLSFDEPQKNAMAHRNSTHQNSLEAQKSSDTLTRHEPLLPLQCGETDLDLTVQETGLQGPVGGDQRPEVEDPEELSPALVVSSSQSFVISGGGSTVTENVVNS

[2] = biological target: T1, full-length human calcium-sensing …; assay: cryo-EM structure; single-particle cryo-EM of CaSR in DDM/CHS, 20 mM HEPES pH 7.5, 150 mM NaCl, with 10 mM L-Trp and 10 mM CaCl2 (active state, CaSR^Acc); 3.5 Å
[3] = biological target: T1, full-length human calcium-sensing …; assay: cryo-EM structure; single-particle cryo-EM of CaSR in DDM/CHS, 20 mM HEPES pH 7.5, 150 mM NaCl, 5 mM EDTA (inactive state; three classes Icc 4.5 Å, Ioc 5.7 Å, Ioo 6.8 Å)
[4] = biological target: T1, full-length human calcium-sensing …; assay: cryo-EM structure; single-particle cryo-EM of CaSR in DDM/CHS, 20 mM HEPES pH 7.5, 150 mM NaCl, 20 mM CaCl2 (three classes: closed-closed CaSR^Ca 3.8 Å, open-closed 5.6 Å, open-open 7.3 Å)

Measured: stoichiometry N

B1: full-length human calcium-sensing receptor (CaSR), P41180 20-1078 (receptor)
chain: T1 chain
modifications: here or on the partner: N-linked glycans (N-acetylglucosamine built) at N261, N287, N446, N468, N488 and N541; N-linked glycans (N-acetylglucosamine built) at N261, N287, N446, N468, N488 and N541
2: all assays above
